In paper PMC8082267, “Inhibition of the PP2A activity by the histone chaperone ANP32B is long-range allosterically regulated by respiratory cytochrome c” (Redox Biology, 2021):

Key:
Conditions in all cases: both partners purified
[1] = molecular target: T1, full-length ANP32B (ANP32B_(1-251)), recombinant (human, UniProt Q92688-1 1-251); experiment: ITC; high ionic strength: reduced Cc injected into ANP32B_(1-251), 10 mM sodium phosphate pH 7.4 with 150 mM NaCl
T1 construct: cloned by PCR from cDNA (Geneservice, UK) into pET28a(+); source: E. coli BL21 (DE3) pLysS, purified (Ni-NTA, Superdex 200)
T1 sequence (Q92688 whole entry): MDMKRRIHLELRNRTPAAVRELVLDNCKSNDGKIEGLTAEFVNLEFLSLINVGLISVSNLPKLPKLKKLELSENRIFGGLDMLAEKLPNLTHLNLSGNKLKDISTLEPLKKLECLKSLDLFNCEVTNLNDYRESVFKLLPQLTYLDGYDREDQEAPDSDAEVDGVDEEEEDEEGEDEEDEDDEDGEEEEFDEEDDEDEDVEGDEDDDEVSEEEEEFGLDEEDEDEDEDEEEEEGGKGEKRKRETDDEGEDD

[2] = molecular target: T2, ANP32B construct lacking its Nuclear Localization Signal sequence (ANP32B_(1-231)) (human, UniProt Q92688-1 1-231); experiment: ITC; low ionic strength: 400 μM reduced Cc injected into ANP32B construct in the cell (50 μM ANP32B_(1-251), 40 μM ANP32B_(1-231), 50 μM ANP32B_(1-161)), 10 mM sodium phosphate pH 7.4; models with one or two independent binding sites
T2 construct: lacks the 20-amino acid C-end stretch; source: E. coli BL21 (DE3) pLysS, purified (Ni-NTA, Superdex 200)
T2 sequence (Q92688 1-231): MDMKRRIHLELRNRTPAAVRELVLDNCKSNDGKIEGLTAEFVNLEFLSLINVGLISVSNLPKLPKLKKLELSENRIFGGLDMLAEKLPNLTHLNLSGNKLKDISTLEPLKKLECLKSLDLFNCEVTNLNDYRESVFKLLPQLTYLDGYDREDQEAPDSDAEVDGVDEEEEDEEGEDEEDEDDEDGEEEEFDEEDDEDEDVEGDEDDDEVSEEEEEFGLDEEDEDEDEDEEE

[3] = molecular target: T1, full-length ANP32B (ANP32B_(1-251)), …; experiment: as above
[4] = molecular target: T3, full-length ANP32B (ANP32B1-251) (human, UniProt Q92688-1 1-251); experiment: ITC; reduced Cc (400 uM stock) injected into ANP32B1-251 (50 uM) in the cell; 10 mM sodium phosphate pH 7.4 with 150 mM NaCl; single binding site
T3 construct: also called Acidic leucine-rich Nuclear Phosphoprotein 32 family member B; source: E. coli BL21 (DE3) pLysS, pET28a(+), purified (Ni-NTA, Superdex 200)
T3 sequence (Q92688 whole entry): as the sequence (Q92688 whole entry) above

Sequence of cytochrome c (P99999 2-105): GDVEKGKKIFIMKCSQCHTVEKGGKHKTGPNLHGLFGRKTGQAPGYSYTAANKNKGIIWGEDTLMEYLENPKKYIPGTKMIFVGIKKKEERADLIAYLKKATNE

| stoichiometry N [1] | Kd [2] | dH [2] | stoichiometry N [2] | dH, higher-affinity site (two independent sites) [3] | dH, lower-affinity site (two independent sites) [3] | Kd [4] | stoichiometry N [4] | Binder |
| --- | --- | --- | --- | --- | --- | --- | --- | --- |
| 1 | 8 µM | -3.6 kcal/mol | 1.09 | -10.7 kcal/mol | 29.5 kcal/mol | – | – | recombinant respiratory cytochrome c (natural protein, heme group (hemeprotein), reduced with sodium ascorbate; 15N-labelled in the HSQC titrations, cytochrome c, human; also called Cc; the hemeprotein) not shown |
| – | – | – | – | – | – | 9.1 µM | 1.2 | cytochrome c (natural protein, heme group; kept in the reduced redox state; 15N-labelled in the NMR titrations, cytochrome c, human (the anti-human Cc serum was raised against this recombinant Cc); NMR assignment BMRB 5406 and structure PDB 1J3S are used for it; also called Cc; respiratory cytochrome c; source: E. coli BL21 (DE3), pBTR1 vector also encoding yeast heme lyase, purified (carboxymethyl cellulose ion exchange)) not shown |
